Experimental data taken from the supplement of paper PMC10567573.

B1: ZNF649 (parent)
chain: EHERAHRGEKPHGCSLCGKAFYKR
B2: KCNA3 (parent)
chain: GERVVINISGLRFETQLKTLCQFP

Variants of: B1
Assay: protein stability index of a GFP-peptide fusion (GPS, HEK-293T) (PSI 1-6); higher = more stable
Conditions: c terminus: a fixed tail appended
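Further: lentivirally expressed fusions sorted by FACS into six bins by GFP to DsRed ratio, PSI derived from sequencing read proportions per bin multiplied by bin number.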

| Variant | protein stability index |
| --- | --- |
| H12A | 2.74 |
| H12W | 1.64 |
| H12Q | 2.18 |
| H12S | 1.32 |
| H12E | 2 |
| H12F | 3.39 |
| H12G | 1.89 |
| H12M | 3.47 |
| H12I | 4.08 |
| H12C | 1.46 |
| H12N | 1.47 |
| H12K | 2.49 |
| H12R | 1.66 |
| H12P | 1.7 |
| C17I | 3.81 |
| C17H | 3.67 |
| C17E | 2.58 |
| C17F | 3.48 |
| C17W | 3 |
| C17N | 4.44 |
| C17P | 3.85 |
| C17G | 4.07 |
| C17D | 4.19 |
| C17T | 4.48 |

| Variant | protein stability index |
| --- | --- |
| C17Y | 2.48 |
| C17M | 3.87 |
| C17R | 4.43 |
| C17S | 3.35 |
| C17V | 3.18 |
| C17L | 3.64 |
| C17K | 4.13 |
| C17Q | 4.46 |
| C14F | 2.69 |
| C14R | 3.73 |
| C14L | 3.94 |
| C14Y | 3.56 |
| C14P | 3.12 |
| C14S | 4.83 |
| C14A | 4.66 |
| C14T | 3.91 |
| C14D | 4.54 |
| C14N | 4.12 |
| C14V | 4.78 |
| C14I | 4.24 |
| C14G | 4.18 |
| C14H | 4.25 |
| C14K | 4.59 |
| S15V | 1.67 |

| Variant | protein stability index |
| --- | --- |
| S15L | 2.27 |
| S15D | 3.14 |
| S15R | 2.23 |
| S15A | 1.84 |
| S15Q | 1.41 |
| S15G | 1.56 |
| S15Y | 2.48 |
| S15P | 4.16 |
| S15I | 2.01 |
| S15M | 1.93 |
| S15W | 1.72 |
| S15K | 3.12 |
| S15H | 5.95 |
| S15E | 2.21 |
| S15N | 2.39 |
| L16M | 1.74 |
| L16R | 2.18 |
| L16C | 3.54 |
| L16K | 2.79 |
| L16V | 3.34 |
| L16N | 2.07 |
| L16I | 2.2 |
| L16Q | 3.02 |
| L16S | 1.97 |

| Variant | protein stability index |
| --- | --- |
| L16A | 3.17 |
| L16Y | 2.14 |
| L16D | 3.82 |
| L16T | 2.16 |
| L16E | 3.8 |
| L16P | 3.48 |
| L16F | 1.83 |
| L16G | 3.96 |
| K23I | 1.92 |
| K23D | 1.9 |
| K23T | 2.8 |
| K23C | 2.64 |
| K23Q | 2.24 |
| K23M | 3 |
| K23L | 1.77 |
| K23V | 1.95 |
| K23R | 3.06 |
| K23H | 1.83 |
| K23G | 2.65 |
| K23S | 2.03 |
| A5V | 1.62 |
| A5E | 1.83 |
| A5W | 1.62 |
| A5N | 2.18 |

| Variant | protein stability index |
| --- | --- |
| A5Q | 2.42 |
| A5Y | 2.58 |
| A5H | 2.23 |
| A5I | 1.34 |
| A5R | 2.76 |
| A5T | 3.23 |
| A5S | 1.09 |
| A5G | 1.52 |
| A5D | 1.88 |
| A5F | 2.8 |
| A5L | 2.24 |
| A5K | 1.74 |
| G13I | 3.07 |
| G13L | 2.2 |
| G13S | 1.95 |
| G13V | 2.03 |
| G13Y | 3.31 |
| G13F | 2.72 |
| G13M | 3.08 |
| G13T | 2.42 |
| G13N | 2.89 |
| G13C | 1.9 |
| G13E | 2.48 |
| G13A | 2.43 |

| Variant | protein stability index |
| --- | --- |
| G13P | 1.88 |
| H6F | 2.04 |
| H6M | 2.27 |
| H6D | 2.01 |
| H6W | 1.78 |
| H6Y | 1.61 |
| H6E | 1.06 |
| H6I | 1.54 |
| H6N | 2.06 |
| H6V | 1.58 |
| H6G | 1.21 |
| H6Q | 1.31 |
| H6K | 1.04 |
| H6L | 1.61 |
| G18V | 2 |
| G18D | 2.45 |
| G18N | 2.49 |
| G18R | 3.06 |
| G18A | 1.43 |
| G18H | 2.15 |
| G18C | 1.59 |
| G18Y | 1.85 |
| G18Q | 1.89 |
| G18W | 1.54 |

| Variant | protein stability index |
| --- | --- |
| G18K | 2.03 |
| G18I | 1.67 |
| G18L | 2.42 |
| G18E | 2.77 |
| G18T | 2.34 |
| G18M | 1.72 |
| G18S | 2.5 |
| R7H | 2.31 |
| R7D | 1.98 |
| R7Q | 2.02 |
| R7Y | 1.82 |
| R7I | 1.69 |
| R7L | 1.48 |
| R7K | 2.34 |
| R7G | 1.61 |
| R7F | 1.32 |
| R7P | 2.63 |
| R7W | 2.02 |
| R7N | 3.32 |
| R7C | 1.65 |
| R7E | 1.95 |
| R7S | 2.23 |
| R7M | 2.72 |
| P11N | 2.33 |

| Variant | protein stability index |
| --- | --- |
| P11W | 1.9 |
| P11Y | 2.01 |
| P11A | 2.08 |
| P11R | 1.45 |
| P11V | 1.79 |
| P11H | 2.41 |
| P11T | 2.54 |
| P11E | 3.19 |
| P11G | 1.55 |
| P11C | 2.51 |
| P11M | 2.31 |
| K10D | 2.27 |
| K10I | 1.69 |
| K10R | 1.01 |
| K10A | 2.12 |
| K10N | 1.19 |
| K10F | 2.98 |
| K10V | 1.76 |
| K10S | 1.66 |
| K10M | 2.28 |
| K10W | 1.67 |
| K10Q | 3.07 |
| K10Y | 1.7 |
| K10T | 3.02 |

| Variant | protein stability index |
| --- | --- |
| K10E | 2.87 |
| G8F | 2.22 |
| G8E | 2.27 |
| G8H | 2.83 |
| G8D | 1.93 |
| G8Q | 3.17 |
| G8K | 2.27 |
| G8S | 1.99 |
| G8Y | 3.18 |
| G8I | 2.01 |
| G8T | 1.91 |
| G8W | 2.21 |
| G8M | 1.8 |
| G8P | 2.78 |
| G8N | 2.12 |
| A20K | 2.74 |
| A20T | 2.17 |
| A20H | 3.2 |
| A20N | 1.83 |
| A20D | 2.51 |
| A20F | 2.57 |
| A20M | 2.62 |
| A20V | 1.79 |
| A20I | 1.95 |

| Variant | protein stability index |
| --- | --- |
| A20C | 2 |
| A20Y | 1.75 |
| A20R | 2.78 |
| K19E | 1.73 |
| K19M | 2.01 |
| K19I | 1.61 |
| K19H | 2.44 |
| K19Y | 2.19 |
| K19A | 1.61 |
| K19C | 1.78 |
| K19T | 1.97 |
| K19P | 1.42 |
| K19N | 2.43 |
| K19V | 1.44 |
| K19G | 1.41 |
| K19D | 2.13 |
| E9H | 2.13 |
| E9R | 3.66 |
| E9Y | 2.19 |
| E9W | 1.59 |
| E9M | 2.08 |
| E9V | 1.42 |
| E9C | 3.6 |
| E9T | 1.81 |

| Variant | protein stability index |
| --- | --- |
| E9N | 1.85 |
| E9S | 1.72 |
| E9A | 2.28 |
| E9I | 1.86 |
| E9F | 2.21 |
| E9L | 2.16 |
| R24I | 2.81 |
| R24F | 2.65 |
| R24V | 2.05 |
| R24C | 4.03 |
| R24W | 3.25 |
| R24D | 3.35 |
| R24Q | 4.13 |
| R24Y | 3.5 |
| R24S | 4.19 |
| R24T | 4.1 |
| R24G | 3.11 |
| R24A | 3.46 |
| R24P | 3 |
| F21G | 2.11 |
| F21H | 3.38 |
| F21S | 2.13 |
| F21Y | 2.95 |
| F21M | 2.37 |

| Variant | protein stability index |
| --- | --- |
| F21V | 2.01 |
| F21L | 3.61 |
| F21T | 2.14 |
| F21D | 2.34 |
| F21C | 2.13 |
| F21P | 2.74 |
| Y22D | 2.48 |
| Y22K | 3.13 |
| Y22F | 2.95 |
| Y22V | 1.36 |
| Y22M | 2.69 |
| Y22L | 2.68 |
| Y22N | 2.35 |
| Y22A | 2.22 |
| Y22P | 1.52 |
| Y22Q | 2.36 |
| Y22W | 1.81 |
| Y22I | 1.93 |
| Y22T | 1.93 |

Variants of: B2
Assay: as above
Conditions: c terminus: a fixed tail appended

| Variant | protein stability index |
| --- | --- |
| G1R | 3.52 |
| G1W | 4.64 |
| G1C | 2.8 |
| G1K | 2.52 |
| G1M | 3.17 |
| G1I | 3.44 |
| G1L | 2.66 |
| G1D | 1.82 |
| G1Y | 4.07 |
| G1T | 2.96 |
| G1H | 2.1 |
| G1Q | 1.95 |
| G1S | 3 |
| G1N | 2.16 |
| R3Y | 3.34 |
| R3G | 1.85 |
| R3S | 2.16 |
| R3P | 2.26 |
| R3Q | 3.4 |
| R3C | 2.36 |
| R3D | 2.44 |
| R3L | 2.75 |
| R3T | 3.87 |
| R3N | 1.09 |
| R3H | 1.04 |
| R3M | 4.26 |

| Variant | protein stability index |
| --- | --- |
| R3A | 3.5 |
| R3K | 2.73 |
| E2L | 3.35 |
| E2P | 4.1 |
| E2N | 2.26 |
| E2M | 2.93 |
| E2T | 2.21 |
| E2Q | 3.74 |
| E2K | 2.2 |
| E2H | 1.45 |
| E2G | 2.35 |
| E2F | 1.98 |
| V4Q | 2.34 |
| V4C | 3.21 |
| V4D | 1.88 |
| V4A | 1.75 |
| V4P | 2.13 |
| V4M | 2.79 |
| V4H | 2.16 |
| V4G | 1.66 |
| V4E | 1.92 |
| V4K | 2.23 |
| V4F | 3.43 |
| V4N | 1.64 |
| V4R | 2.28 |
